Laboratory results taken from patent US20110020379A1.
Positions of bridges follow the written chain, without caps; N, C: chain ends. No end group written: not given here.

Key:
[1] = target: unrelated control antibody; assay: phage ELISA, 10^10 phagemid per well, wells coated with control mAb
[2] = target: unrelated control antibody; assay: phage ELISA, 10^9 phagemid per well, wells coated with control mAb
[3] = target: unrelated control antibody; assay: phage ELISA, 10^8 phagemid per well, wells coated with control mAb
[4] = target: bovine serum albumin (bovine) (UniProt P02769); assay: phage ELISA, 10^10 phagemid per well, BSA-only wells
Chain of bovine serum albumin (bovine) (P02769 25-607 limits assumed): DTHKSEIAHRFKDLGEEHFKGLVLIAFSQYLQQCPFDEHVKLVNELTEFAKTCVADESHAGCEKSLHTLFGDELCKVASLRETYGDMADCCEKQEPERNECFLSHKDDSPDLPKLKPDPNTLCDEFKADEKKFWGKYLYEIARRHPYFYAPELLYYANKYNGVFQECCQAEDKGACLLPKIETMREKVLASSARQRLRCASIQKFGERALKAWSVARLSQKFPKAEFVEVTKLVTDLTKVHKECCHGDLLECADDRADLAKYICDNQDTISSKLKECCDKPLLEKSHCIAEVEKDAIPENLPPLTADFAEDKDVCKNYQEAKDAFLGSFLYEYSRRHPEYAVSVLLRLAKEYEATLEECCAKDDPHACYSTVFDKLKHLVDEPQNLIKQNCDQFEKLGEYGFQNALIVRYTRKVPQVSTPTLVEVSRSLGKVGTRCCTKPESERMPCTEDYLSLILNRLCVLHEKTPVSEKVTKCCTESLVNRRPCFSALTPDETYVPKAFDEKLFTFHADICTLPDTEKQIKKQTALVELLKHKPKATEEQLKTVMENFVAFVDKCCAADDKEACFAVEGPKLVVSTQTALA

[5] = target: bovine serum albumin (bovine) (UniProt P02769); assay: phage ELISA, 10^8 phagemid per well, BSA-only wells
[6] = target: bovine serum albumin (bovine) (UniProt P02769); assay: phage ELISA, 10^9 phagemid per well, BSA-only wells

Binder: CSGLYPWDYFMCS (disulfide 1-12 (inferred)) [phagemid CS1-29p]
- ELISA (absorbance units) (absorbance units) [1]: 0.148
- ELISA (absorbance units) (absorbance units) [2]: 0.136
- ELISA (absorbance units) (absorbance units) [3]: 0.125
- ELISA (absorbance units) (absorbance units) [4]: 0.141
- ELISA (absorbance units) (absorbance units) [5]: 0.127
- ELISA (absorbance units) (absorbance units) [6]: 0.147

Binder: CSGLYPWDMFRCS (disulfide 1-12 (inferred)) [phagemid CS1-9p]
- ELISA (absorbance units) (absorbance units) [1]: 0.213
- ELISA (absorbance units) (absorbance units) [2]: 0.204
- ELISA (absorbance units) (absorbance units) [3]: 0.209
- ELISA (absorbance units) (absorbance units) [4]: 0.221
- ELISA (absorbance units) (absorbance units) [5]: 0.216
- ELISA (absorbance units) (absorbance units) [6]: 0.22

Binder: CSLFYLWDQDRCS (disulfide 1-12 (inferred)) [phagemid CS1-2p]
- ELISA (absorbance units) (absorbance units) [1]: 0.228
- ELISA (absorbance units) (absorbance units) [2]: 0.199
- ELISA (absorbance units) (absorbance units) [3]: 0.188
- ELISA (absorbance units) (absorbance units) [4]: 0.327
- ELISA (absorbance units) (absorbance units) [5]: 0.264
- ELISA (absorbance units) (absorbance units) [6]: 0.277

Binder: CSFRYQWDMFRCS (disulfide 1-12 (inferred)) [phagemid CS1-11p]
- ELISA (absorbance units) (absorbance units) [1]: 0.242
- ELISA (absorbance units) (absorbance units) [2]: 0.258
- ELISA (absorbance units) (absorbance units) [3]: 0.252
- ELISA (absorbance units) (absorbance units) [4]: 0.304
- ELISA (absorbance units) (absorbance units) [5]: 0.268
- ELISA (absorbance units) (absorbance units) [6]: 0.278

B1: phagemid CS1-31p (peptide)
peptide: CSFFYSLCYCWCS
modifications: disulfide (positions not given here); also: disulfide cyclised, pairing of the four Cys not given here
- ELISA (absorbance units) (absorbance units) [1]: 0.125
- ELISA (absorbance units) (absorbance units) [2]: 0.118
- ELISA (absorbance units) (absorbance units) [3]: 0.116
- ELISA (absorbance units) (absorbance units) [4]: 0.112
- ELISA (absorbance units) (absorbance units) [5]: 0.109
- ELISA (absorbance units) (absorbance units) [6]: 0.114

Binder: CSFRYLWDQDRCS (disulfide 1-12 (inferred)) [phagemid CS1-6p]
- ELISA (absorbance units) (absorbance units) [1]: 0.203
- ELISA (absorbance units) (absorbance units) [2]: 0.172
- ELISA (absorbance units) (absorbance units) [3]: 0.173
- ELISA (absorbance units) (absorbance units) [4]: 0.275
- ELISA (absorbance units) (absorbance units) [5]: 0.254
- ELISA (absorbance units) (absorbance units) [6]: 0.27
